T1: FcγRIIb (human, UniProt P31994 43-217)
T1 construct: extracellular domain; also called 2b; FcgRIIb
T1 sequence (looked up): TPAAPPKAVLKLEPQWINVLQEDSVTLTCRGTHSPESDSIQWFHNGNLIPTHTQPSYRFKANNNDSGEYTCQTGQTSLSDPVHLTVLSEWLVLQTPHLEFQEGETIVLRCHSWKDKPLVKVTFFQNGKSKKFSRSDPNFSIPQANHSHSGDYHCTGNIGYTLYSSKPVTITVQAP

B1: GpH7-A5/GpH7-B3 variant I332_14T/GpL16-k0 (antibody, human IgG1, kappa)
heavy 1: not shown
heavy 2: not shown
light: DIVMTQSPLSLPVTPGEPASISCQASESLVHSNRNTYLHWYLQKPGQSPQLLIYKVSNRFSGVPDRFSGSGSGTDFTLKISRVEAEDVGVYYCSQNTHVPPTFGQGTKVEIERTVAAPSVFIFPPSDEQLKSGTASVVCLLNNFYPREAKVQWKVDNALQSGNSQESVTEQDSKDSTYSLSSTLTLSKADYEKHKVYACEVTHQGLSSPVTKSFNRGEC
notes: also called He Ab I332_14T
B2: GpH7-A5/GpH7-B3 variant A330_05P/GpL16-k0 (antibody, human IgG1, kappa)
heavy 1: not shown
heavy 2: not shown
light: B1 light
notes: also called He Ab A330_05P
B3: GpH7-B3 variant T335_20W/GpL16-k0 (antibody, human IgG1, kappa)
heavy: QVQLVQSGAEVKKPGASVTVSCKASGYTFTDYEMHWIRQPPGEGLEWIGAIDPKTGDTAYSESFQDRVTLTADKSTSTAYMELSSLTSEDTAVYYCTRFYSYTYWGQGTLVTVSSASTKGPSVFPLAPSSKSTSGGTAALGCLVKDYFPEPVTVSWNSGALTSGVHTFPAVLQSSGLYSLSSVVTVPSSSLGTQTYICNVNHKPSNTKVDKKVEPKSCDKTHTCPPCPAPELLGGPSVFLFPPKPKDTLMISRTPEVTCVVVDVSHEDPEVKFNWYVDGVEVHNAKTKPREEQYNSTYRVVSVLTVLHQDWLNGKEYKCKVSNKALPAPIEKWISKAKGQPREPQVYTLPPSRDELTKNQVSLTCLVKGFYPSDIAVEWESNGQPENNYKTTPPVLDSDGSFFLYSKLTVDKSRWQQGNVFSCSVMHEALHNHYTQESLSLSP
light: B1 light
notes: also called Ho Ab T335_20W
B4: GpH7-A5/GpH7-B3 variant K326_08L/GpL16-k0 (antibody, human IgG1, kappa)
heavy 1: not shown
heavy 2: not shown
light: B1 light
notes: also called He Ab K326_08L
B5: GpH7-B3 variant S337_18N/GpL16-k0 (antibody, human IgG1, kappa)
heavy: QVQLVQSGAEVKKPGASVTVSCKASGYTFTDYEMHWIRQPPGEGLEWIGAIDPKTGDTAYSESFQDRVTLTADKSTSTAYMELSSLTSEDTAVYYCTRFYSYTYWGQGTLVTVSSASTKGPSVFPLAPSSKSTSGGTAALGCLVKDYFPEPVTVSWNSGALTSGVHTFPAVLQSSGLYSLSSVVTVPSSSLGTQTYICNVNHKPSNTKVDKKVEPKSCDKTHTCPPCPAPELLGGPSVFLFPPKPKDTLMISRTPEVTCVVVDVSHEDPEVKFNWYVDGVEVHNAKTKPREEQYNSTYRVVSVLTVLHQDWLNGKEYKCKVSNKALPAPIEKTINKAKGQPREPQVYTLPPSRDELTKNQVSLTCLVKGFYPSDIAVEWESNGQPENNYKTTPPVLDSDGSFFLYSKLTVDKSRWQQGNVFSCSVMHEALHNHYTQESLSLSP
light: B1 light
notes: also called Ho Ab S337_18N
B6: GpH7-B3 variant T335_07I/GpL16-k0 (antibody, human IgG1, kappa)
heavy: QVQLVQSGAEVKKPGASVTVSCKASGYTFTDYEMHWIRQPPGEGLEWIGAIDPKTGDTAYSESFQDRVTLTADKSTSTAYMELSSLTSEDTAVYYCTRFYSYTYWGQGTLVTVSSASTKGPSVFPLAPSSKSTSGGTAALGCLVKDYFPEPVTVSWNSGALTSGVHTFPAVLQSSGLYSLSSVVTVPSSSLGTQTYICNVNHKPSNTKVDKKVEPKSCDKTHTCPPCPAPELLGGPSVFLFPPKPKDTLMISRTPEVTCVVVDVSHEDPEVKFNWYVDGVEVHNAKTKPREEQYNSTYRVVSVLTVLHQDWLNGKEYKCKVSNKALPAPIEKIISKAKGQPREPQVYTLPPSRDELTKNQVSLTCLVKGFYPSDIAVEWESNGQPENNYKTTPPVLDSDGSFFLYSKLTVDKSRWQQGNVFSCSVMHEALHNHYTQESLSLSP
light: B1 light
notes: also called Ho Ab T335_07I
B7: GpH7-A5/GpH7-B3 variant G237_19Q/GpL16-k0 (antibody, human IgG1, kappa)
heavy 1: not shown
heavy 2: not shown
light: B1 light
notes: also called He Ab G237_19Q
B8: GpH7-B3 variant S337_16H/GpL16-k0 (antibody, human IgG1, kappa)
heavy: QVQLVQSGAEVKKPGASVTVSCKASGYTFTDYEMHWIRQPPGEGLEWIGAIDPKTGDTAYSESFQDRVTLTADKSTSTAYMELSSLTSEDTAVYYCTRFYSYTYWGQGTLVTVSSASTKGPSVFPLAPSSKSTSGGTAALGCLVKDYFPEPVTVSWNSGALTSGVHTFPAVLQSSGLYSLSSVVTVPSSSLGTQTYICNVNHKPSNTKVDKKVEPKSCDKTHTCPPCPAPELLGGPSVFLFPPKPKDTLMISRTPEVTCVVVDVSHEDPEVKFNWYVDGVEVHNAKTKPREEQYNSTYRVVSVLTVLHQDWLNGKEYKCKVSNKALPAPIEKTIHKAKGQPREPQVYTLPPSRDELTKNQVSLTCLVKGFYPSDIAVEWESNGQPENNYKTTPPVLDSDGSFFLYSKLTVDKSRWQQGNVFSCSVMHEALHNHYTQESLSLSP
light: B1 light
notes: also called Ho Ab S337_16H
B9: GpH7-B3 variant S267_19Q/GpL16-k0 (antibody, human IgG1, kappa)
heavy: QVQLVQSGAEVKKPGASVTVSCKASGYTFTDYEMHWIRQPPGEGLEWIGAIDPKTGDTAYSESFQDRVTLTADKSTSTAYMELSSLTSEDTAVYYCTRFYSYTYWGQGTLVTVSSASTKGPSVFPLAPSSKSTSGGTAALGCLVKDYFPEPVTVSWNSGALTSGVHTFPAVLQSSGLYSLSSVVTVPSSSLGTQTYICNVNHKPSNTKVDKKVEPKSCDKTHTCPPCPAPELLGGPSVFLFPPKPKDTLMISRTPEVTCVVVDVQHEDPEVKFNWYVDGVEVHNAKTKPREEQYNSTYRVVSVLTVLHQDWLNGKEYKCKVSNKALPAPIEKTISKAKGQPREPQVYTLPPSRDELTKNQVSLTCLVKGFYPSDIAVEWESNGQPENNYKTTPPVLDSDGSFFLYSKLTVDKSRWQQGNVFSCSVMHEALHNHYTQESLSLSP
light: B1 light
notes: also called Ho Ab S267_19Q
B10: GpH7-A5/GpH7-B3 variant L235_15Y/GpL16-k0 (antibody, human IgG1, kappa)
heavy 1: not shown
heavy 2: not shown
light: B1 light
notes: also called He Ab L235_15Y
B11: GpH7-B3 variant S298_06M/GpL16-k0 (antibody, human IgG1, kappa)
heavy: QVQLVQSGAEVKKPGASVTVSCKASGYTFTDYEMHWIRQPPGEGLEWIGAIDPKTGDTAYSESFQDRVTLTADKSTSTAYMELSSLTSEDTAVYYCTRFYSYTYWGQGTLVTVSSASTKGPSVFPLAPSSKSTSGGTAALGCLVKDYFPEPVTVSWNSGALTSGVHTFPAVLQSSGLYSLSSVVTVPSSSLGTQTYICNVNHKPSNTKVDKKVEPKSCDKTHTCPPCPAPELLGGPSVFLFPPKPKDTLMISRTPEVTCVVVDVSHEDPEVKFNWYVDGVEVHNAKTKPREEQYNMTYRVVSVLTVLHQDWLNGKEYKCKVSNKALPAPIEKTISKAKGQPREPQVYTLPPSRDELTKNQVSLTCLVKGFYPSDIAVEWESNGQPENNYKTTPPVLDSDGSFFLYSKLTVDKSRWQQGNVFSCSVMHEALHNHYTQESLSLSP
light: B1 light
notes: also called Ho Ab S298_06M
B12: GpH7-A5/GpH7-B3 variant G237_10E/GpL16-k0 (antibody, human IgG1, kappa)
heavy 1: not shown
heavy 2: not shown
light: B1 light
notes: also called He Ab G237_10E
B13: GpH7-B3 variant S337_08L/GpL16-k0 (antibody, human IgG1, kappa)
heavy: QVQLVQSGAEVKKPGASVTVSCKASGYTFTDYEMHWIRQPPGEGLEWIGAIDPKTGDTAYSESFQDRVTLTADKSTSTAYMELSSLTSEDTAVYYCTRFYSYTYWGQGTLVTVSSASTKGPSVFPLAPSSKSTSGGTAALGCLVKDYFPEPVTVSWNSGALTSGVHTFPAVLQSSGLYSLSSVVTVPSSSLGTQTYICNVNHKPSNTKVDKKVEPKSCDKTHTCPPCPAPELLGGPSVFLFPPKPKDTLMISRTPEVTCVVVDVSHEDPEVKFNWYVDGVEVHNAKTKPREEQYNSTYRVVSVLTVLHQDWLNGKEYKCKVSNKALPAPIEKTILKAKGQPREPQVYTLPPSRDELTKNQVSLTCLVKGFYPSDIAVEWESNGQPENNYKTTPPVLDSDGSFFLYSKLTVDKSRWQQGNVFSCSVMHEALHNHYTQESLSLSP
light: B1 light
notes: also called Ho Ab S337_08L
B14: GpH7-A5/GpH7-B3 variant L234_10E/GpL16-k0 (antibody, human IgG1, kappa)
heavy 1: not shown
heavy 2: not shown
light: B1 light
notes: also called He Ab L234_10E
B15: GpH7-A5/GpH7-B3 variant L328_02A/GpL16-k0 (antibody, human IgG1, kappa)
heavy 1: not shown
heavy 2: not shown
light: B1 light
notes: also called He Ab L328_02A
B16: GpH7-A5/GpH7-B3 variant H268_03V/GpL16-k0 (antibody, human IgG1, kappa)
heavy 1: not shown
heavy 2: not shown
light: B1 light
notes: also called He Ab H268_03V
B17: GpH7-A5/GpH7-B3 variant I336_08L/GpL16-k0 (antibody, human IgG1, kappa)
heavy 1: not shown
heavy 2: not shown
light: B1 light
notes: also called He Ab I336_08L
B18: GpH7-A5/GpH7-B3 variant L235_09D/GpL16-k0 (antibody, human IgG1, kappa)
heavy 1: not shown
heavy 2: not shown
light: B1 light
notes: also called He Ab L235_09D
B19: GpH7-B3 variant Y296_20W/GpL16-k0 (antibody, human IgG1, kappa)
heavy: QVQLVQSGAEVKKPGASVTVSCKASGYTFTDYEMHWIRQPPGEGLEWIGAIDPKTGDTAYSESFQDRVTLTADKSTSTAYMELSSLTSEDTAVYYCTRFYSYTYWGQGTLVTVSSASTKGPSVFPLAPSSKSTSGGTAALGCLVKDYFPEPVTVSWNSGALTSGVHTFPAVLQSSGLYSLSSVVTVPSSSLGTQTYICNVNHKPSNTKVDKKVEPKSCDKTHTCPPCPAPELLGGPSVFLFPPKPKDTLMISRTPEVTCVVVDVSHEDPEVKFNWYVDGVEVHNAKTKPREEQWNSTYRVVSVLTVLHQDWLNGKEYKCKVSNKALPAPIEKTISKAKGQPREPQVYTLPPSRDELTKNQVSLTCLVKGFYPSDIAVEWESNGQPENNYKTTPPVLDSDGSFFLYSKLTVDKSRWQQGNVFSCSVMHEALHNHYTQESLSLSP
light: B1 light
notes: also called Ho Ab Y296_20W
B20: GpH7-B3 variant S337_07I/GpL16-k0 (antibody, human IgG1, kappa)
heavy: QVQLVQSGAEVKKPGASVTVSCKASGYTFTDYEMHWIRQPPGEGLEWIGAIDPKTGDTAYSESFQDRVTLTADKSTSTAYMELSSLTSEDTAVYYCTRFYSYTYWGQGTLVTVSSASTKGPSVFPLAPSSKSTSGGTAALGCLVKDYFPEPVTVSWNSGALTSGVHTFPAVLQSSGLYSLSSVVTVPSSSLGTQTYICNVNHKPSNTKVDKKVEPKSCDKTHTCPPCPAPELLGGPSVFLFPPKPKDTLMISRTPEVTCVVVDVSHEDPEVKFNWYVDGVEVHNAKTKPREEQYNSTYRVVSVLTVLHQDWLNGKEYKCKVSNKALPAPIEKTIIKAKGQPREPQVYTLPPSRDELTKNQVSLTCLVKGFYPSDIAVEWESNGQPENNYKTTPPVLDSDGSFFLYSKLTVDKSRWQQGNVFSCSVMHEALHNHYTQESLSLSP
light: B1 light
notes: also called Ho Ab S337_07I
B21: GpH7-B3 variant S337_20W/GpL16-k0 (antibody, human IgG1, kappa)
heavy: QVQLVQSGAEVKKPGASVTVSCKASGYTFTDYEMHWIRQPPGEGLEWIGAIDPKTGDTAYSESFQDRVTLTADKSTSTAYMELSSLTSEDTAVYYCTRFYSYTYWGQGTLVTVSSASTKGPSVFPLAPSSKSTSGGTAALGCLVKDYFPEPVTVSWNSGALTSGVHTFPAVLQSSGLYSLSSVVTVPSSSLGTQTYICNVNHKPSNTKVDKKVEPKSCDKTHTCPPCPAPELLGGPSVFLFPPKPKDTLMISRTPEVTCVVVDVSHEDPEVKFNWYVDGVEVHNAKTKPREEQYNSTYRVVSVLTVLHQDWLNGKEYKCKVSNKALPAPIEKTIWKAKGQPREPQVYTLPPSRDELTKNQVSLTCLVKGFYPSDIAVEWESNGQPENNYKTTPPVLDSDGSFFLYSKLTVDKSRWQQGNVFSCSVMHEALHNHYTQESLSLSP
light: B1 light
notes: also called Ho Ab S337_20W
B22: GpH7-B3 variant T335_18N/GpL16-k0 (antibody, human IgG1, kappa)
heavy: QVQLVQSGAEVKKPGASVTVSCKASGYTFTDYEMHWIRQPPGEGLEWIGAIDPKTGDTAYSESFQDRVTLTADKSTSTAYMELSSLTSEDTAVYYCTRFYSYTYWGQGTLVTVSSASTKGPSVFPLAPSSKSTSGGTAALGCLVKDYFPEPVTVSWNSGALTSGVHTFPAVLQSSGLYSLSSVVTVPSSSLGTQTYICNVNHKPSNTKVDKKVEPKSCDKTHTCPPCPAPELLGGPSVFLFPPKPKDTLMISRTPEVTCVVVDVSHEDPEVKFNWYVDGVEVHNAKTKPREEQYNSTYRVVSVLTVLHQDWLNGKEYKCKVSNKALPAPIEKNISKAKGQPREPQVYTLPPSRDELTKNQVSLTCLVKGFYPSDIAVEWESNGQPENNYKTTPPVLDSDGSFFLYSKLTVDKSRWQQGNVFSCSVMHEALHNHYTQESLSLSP
light: B1 light
notes: also called Ho Ab T335_18N
B23: GpH7-A5/GpH7-B3 variant L234_09D/GpL16-k0 (antibody, human IgG1, kappa)
heavy 1: not shown
heavy 2: not shown
light: B1 light
notes: also called He Ab L234_09D
B24: GpH7-A5/GpH7-B3 variant H268_05P/GpL16-k0 (antibody, human IgG1, kappa)
heavy 1: not shown
heavy 2: not shown
light: B1 light
notes: also called He Ab H268_05P
B25: GpH7-A5/GpH7-B3 variant H268_15Y/GpL16-k0 (antibody, human IgG1, kappa)
heavy 1: not shown
heavy 2: not shown
light: B1 light
notes: also called He Ab H268_15Y
B26: GpH7-A5/GpH7-B3 variant I336_06M/GpL16-k0 (antibody, human IgG1, kappa)
heavy 1: not shown
heavy 2: not shown
light: B1 light
notes: also called He Ab I336_06M
B27: GpH7-B3 variant S324_06M/GpL16-k0 (antibody, human IgG1, kappa)
heavy: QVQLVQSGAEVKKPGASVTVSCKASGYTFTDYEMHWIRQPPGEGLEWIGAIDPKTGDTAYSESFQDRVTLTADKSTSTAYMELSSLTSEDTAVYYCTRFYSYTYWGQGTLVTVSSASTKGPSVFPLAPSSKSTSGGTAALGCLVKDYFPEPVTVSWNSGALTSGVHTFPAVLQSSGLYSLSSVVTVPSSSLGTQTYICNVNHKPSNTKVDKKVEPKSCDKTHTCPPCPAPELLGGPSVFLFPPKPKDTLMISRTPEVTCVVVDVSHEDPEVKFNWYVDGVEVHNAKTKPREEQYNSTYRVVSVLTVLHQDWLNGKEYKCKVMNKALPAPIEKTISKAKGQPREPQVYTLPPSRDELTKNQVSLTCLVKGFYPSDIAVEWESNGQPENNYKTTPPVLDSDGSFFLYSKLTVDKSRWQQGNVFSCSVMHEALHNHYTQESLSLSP
light: B1 light
notes: also called Ho Ab S324_06M
B28: GpH7-B3 variant S267_06M/GpL16-k0 (antibody, human IgG1, kappa)
heavy: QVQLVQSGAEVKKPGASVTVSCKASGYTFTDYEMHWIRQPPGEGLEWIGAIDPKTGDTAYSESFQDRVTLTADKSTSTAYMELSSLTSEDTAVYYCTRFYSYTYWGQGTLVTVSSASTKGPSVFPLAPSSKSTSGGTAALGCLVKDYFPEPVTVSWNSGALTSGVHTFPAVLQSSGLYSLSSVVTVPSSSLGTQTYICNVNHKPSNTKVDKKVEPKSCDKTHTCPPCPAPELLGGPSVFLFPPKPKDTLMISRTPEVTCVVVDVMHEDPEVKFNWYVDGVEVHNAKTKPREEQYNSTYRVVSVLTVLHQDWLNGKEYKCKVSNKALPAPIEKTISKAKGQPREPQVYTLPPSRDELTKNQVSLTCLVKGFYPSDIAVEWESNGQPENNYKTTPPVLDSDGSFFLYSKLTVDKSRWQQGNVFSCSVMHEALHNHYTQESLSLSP
light: B1 light
notes: also called Ho Ab S267_06M

Columns and labels:
FcγRIIb [1] = biological target: T1, FcγRIIb; test: SPR (Biacore), binding relative to GpH7-A5/GpH7-B3/GpL16-k0 = 100
Protocol: (§1) Analysis of interaction between objective antibody and the FcγR was carried out using Biacore T100 (GE Healthcare). HBS-EP+ (GE Healthcare) was used as the running buffer, and the measurement temperature was set to 25° C. Chips produced by immobilizing the antigen peptide by the amine coupling method to a Series S Sencor Chip CM5 (GE Healthcare), or alternatively, chips produced by allowing preliminarily biotinylated antigen peptides to interact with and immobilize onto a Series S Sensor Chip SA (certified) (GE Healthcare) were used. Antibodies of interest were captured onto an antigen peptide-immobilized chip, and allowed to interact to each FcγR diluted with running buffer. To regenerate and repeatedly use the chip, the antibodies captured on the chip were washed off by reacting 10 mM glycine-HCl, pH 1.5.
(§2) The FcγR-binding activity of each antibody was assessed primarily using as an indicator the FcγR-binding activity and dissociation constant for FcγR.

FcγRIIb [2] = biological target: T1, FcγRIIb; test: SPR (Biacore), binding relative to GpH7-B3/GpL16-k0 = 100
Protocol: as §1, §2

Binder | He/Con_2b (FcγRIIb [1]) | Ho/Con_2b (FcγRIIb [2])
B1 | 106 % of control | –
B2 | 137 % of control | –
B3 | – | 94.4 % of control
B4 | 177 % of control | –
B5 | – | 98 % of control
B6 | – | 104 % of control
B7 | 108 % of control | –
B8 | – | 103 % of control
B9 | – | 185 % of control
B10 | 149 % of control | –
B11 | – | 101 % of control
B12 | 114 % of control | –
B13 | – | 90.7 % of control
B14 | 118 % of control | –
B15 | 144 % of control | –
B16 | 114 % of control | –
B17 | 107 % of control | –
B18 | 106 % of control | –
B19 | – | 103 % of control
B20 | – | 96.6 % of control
B21 | – | 99.6 % of control
B22 | – | 96.1 % of control
B23 | 150 % of control | –
B24 | 116 % of control | –
B25 | 106 % of control | –
B26 | 101 % of control | –
B27 | – | 104 % of control
B28 | – | 187 % of control
